Laboratory results from the supplement of paper PMC7125110.
± gives the standard error. For some assays here: Fewer inactive variants are shown than the library holds.

B1: glmS ribozyme (parent)
chain: AUAAAAGCGCCAGAACUACAGAAAUGUAGUUGACGAGGAGGAGGUUUAUCGAAUUUUCGGCGGAUGCCUCCAAA

Assays:
Details in all cases: with glucosamine-6-phosphate
[1] = variants of: B1; experiment: kcat; higher = faster cleavage; RNA array
Outline: (§1)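 Sequenced MiSeq chips were the platform: E. coli RNA polymerase transcribed barcoded ribozyme variants on them in situ, and a hybridised Cy3 probe tracked these at 37 °C. After glucosamine-6-phosphate (40 μM to 10 mM) in HEPES/KCl/Mg(OAc)2 buffer was flowed in, tiles were imaged over ~14 h. Signals normalised to baseline and to non-cleaving reference variants were reduced to per-tile medians and fit to one- or two-exponential decays to obtain kobs. kcat and KM were derived through weighted Michaelis–Menten fits across concentrations.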

[2] = variants of: B1; experiment: self-cleavage kobs at 160 uM GlcN6P; higher = faster cleavage; RNA array
Outline: as §1

[3] = variants of: B1; experiment: self-cleavage kobs at 640 uM GlcN6P; higher = faster cleavage; RNA array
Outline: as §1

[4] = variants of: B1; experiment: self-cleavage kobs at 2500 uM GlcN6P; higher = faster cleavage; RNA array
Outline: as §1

[5] = variants of: B1; experiment: self-cleavage kobs at 10000 uM GlcN6P; higher = faster cleavage; RNA array
Outline: as §1

[6] = variants of: B1; experiment: KM; higher = weaker cofactor use; RNA array
Outline: as §1

[7] = variants of: B1; experiment: self-cleavage kobs at 40 uM GlcN6P; higher = faster cleavage; RNA array
Outline: as §1

Variant | kcat [1] [s⁻¹] | self-cleavage kobs at 160 uM GlcN6P [2] [s⁻¹] | self-cleavage kobs at 640 uM GlcN6P [3] [s⁻¹] | self-cleavage kobs at 2500 uM GlcN6P [4] [s⁻¹] | self-cleavage kobs at 10000 uM GlcN6P [5] [s⁻¹] | KM [6] [µM] | self-cleavage kobs at 40 uM GlcN6P [7] [s⁻¹]
A53U C68A | 5.43e-05 ± 1.6e-05 | 3.62e-05 ± 1e-05 | 6.67e-05 ± 8.3e-06 | 6.54e-05 ± 9.8e-06 |  |  | 
A39G G59A | 0.000106 ± 2.1e-05 |  |  | 7.4e-05 ± 1.8e-05 | 8.4e-05 ± 1.1e-05 |  | 
U45C C70U | 0.0085 ± 0.0033 | 0.000303 ± 4.5e-05 | 0.000855 ± 0.00011 | 0.00283 ± 0.00041 | 0.00646 ± 0.00093 | 4580 ± 2200 | 0.000103 ± 1.3e-05
C58U C71U | 8.62e-05 ± 5e-06 |  |  | 3.66e-05 ± 7.1e-06 | 6.56e-05 ± 6e-06 | 3200 ± 560 | 
A39C U46G | 0.000897 ± 0.00012 | 6.87e-05 ± 9.7e-06 | 0.000224 ± 2e-05 | 0.00042 ± 6.2e-05 | 0.000829 ± 0.0001 | 2000 ± 420 | 
A48C C67U | 0.000136 ± 1.3e-05 |  |  | 5.35e-05 ± 1.4e-05 | 9.42e-05 ± 1.2e-05 | 4380 ± 1100 | 
G51U A52C | < 1e-05 |  |  | < 1e-05 | < 1e-05 |  | < 1e-05
G37U A64C | < 1e-05 |  |  |  |  |  | < 1e-05
G9U C61A | 0.00139 ± 0.00021 | 0.00013 ± 2.7e-05 | 0.000373 ± 5.1e-05 | 0.000927 ± 0.00013 | 0.00121 ± 0.00023 | 1500 ± 360 | 4.72e-05 ± 9.6e-06
U31A A52G C68A | 1.75e-05 ± 4.6e-06 |  |  |  |  |  | 
G41U C58A | 1.21e-05 ± 4e-06 |  |  |  |  |  | 
G29A A53G | 0.00571 ± 0.0021 | 0.000249 ± 4.3e-05 | 0.000915 ± 0.00019 | 0.00162 ± 0.00059 | 0.00483 ± 0.00087 | 3380 ± 1700 | 0.000136 ± 3.6e-05
A12G U30G | 8.75e-05 ± 7.1e-06 |  |  | 5.48e-05 ± 8.9e-06 | 7.28e-05 ± 7.5e-06 | 1830 ± 510 | < 1e-05
C10U A52G | < 1e-05 |  |  |  |  |  | 
C10U A12C | 5.93e-05 ± 3.7e-06 |  |  | 2.54e-05 ± 8e-06 | 4.39e-05 ± 8.1e-06 | 3450 ± 580 | 
C16U G63U | 1.26e-05 ± 2.3e-06 |  |  |  |  |  | 
G32U U56A | 0.00196 ± 0.00014 | 3.3e-05 ± 1.3e-05 | 0.000156 ± 2.9e-05 | 0.000494 ± 7.9e-05 | 0.0011 ± 9.2e-05 | 7730 ± 900 | 
G59U U69A | 1.61e-05 ± 5.1e-06 |  |  |  |  |  | 
G29U C67A U69A | 7.55e-05 ± 1.2e-05 |  | 5.78e-05 ± 2.8e-05 | 0.000106 ± 2.6e-05 | 6.88e-05 ± 1.3e-05 |  | 

Variant | kcat [1] [s⁻¹] | self-cleavage kobs at 160 uM GlcN6P [2] [s⁻¹] | self-cleavage kobs at 640 uM GlcN6P [3] [s⁻¹] | self-cleavage kobs at 2500 uM GlcN6P [4] [s⁻¹] | self-cleavage kobs at 10000 uM GlcN6P [5] [s⁻¹] | KM [6] [µM] | self-cleavage kobs at 40 uM GlcN6P [7] [s⁻¹]
C16A U56A | 0.0016 ± 0.00026 | 9.31e-05 ± 3e-05 | 0.000261 ± 7.2e-05 | 0.000618 ± 0.00011 | 0.00131 ± 0.0002 | 3180 ± 890 | 2.51e-05 ± 9.6e-06
C16G C67A | 0.00104 ± 0.00042 |  | 0.000169 ± 6.1e-05 | 0.000618 ± 0.00021 | 0.000956 ± 0.00019 |  | 3.35e-05 ± 7e-06
G51U C58U | < 1e-05 | < 1e-05 |  |  | < 1e-05 |  | 
A36G A64G | 2.02e-05 ± 1.1e-06 | < 1e-05 |  |  |  |  | < 1e-05
G40A U46A | 0.00064 ± 0.00019 |  | 0.000254 ± 5.4e-05 | 0.000422 ± 9.6e-05 | 0.000495 ± 9.6e-05 |  | 
A12G A14C | 0.000175 ± 3.9e-06 |  | 3.2e-05 ± 7.2e-06 | 7.78e-05 ± 1.1e-05 | 0.000135 ± 1.1e-05 | 2970 ± 160 | 
C61U C67A | 1.1e-05 ± 1.5e-06 |  |  |  |  |  | 
A12U G44U | 0.000852 ± 0.00012 | 7.54e-05 ± 1.9e-05 | 0.000264 ± 4.7e-05 | 0.000645 ± 0.0001 | 0.000739 ± 8e-05 | 1290 ± 350 | 3.83e-05 ± 8.2e-06
U47G C61G | 1.1e-05 ± 2e-06 |  |  |  |  |  | 
U47G C61U | 2.06e-05 ± 4.9e-06 |  |  |  |  |  | < 1e-05
A36U G59A G63U C71U | < 1e-05 |  |  | < 1e-05 |  |  | 
A39U G41C | 2.16e-05 ± 4.5e-07 |  |  |  | 1.93e-05 ± 7.7e-06 | 1200 ± 150 | < 1e-05
U31C U49G | 7.25e-05 ± 2.8e-06 |  | 2.25e-05 ± 9.3e-06 | 4.27e-05 ± 7.7e-06 | 6.33e-05 ± 9.1e-06 | 1610 ± 200 | 
U31A A33U | 2.01e-05 ± 3.8e-06 |  |  |  |  |  | < 1e-05
A39U U65G | 0.00369 ± 0.0011 | 0.0002 ± 2.9e-05 | 0.000445 ± 9.7e-05 | 0.00164 ± 0.00021 | 0.0031 ± 0.00036 | 2880 ± 1200 | 6.84e-05 ± 8.5e-06
U56C A64G | 0.000167 ± 1.1e-05 |  |  | 8.52e-05 ± 2.8e-05 | 0.000131 ± 2e-05 | 2690 ± 560 | 
A53C C58A | 5.04e-05 ± 1.4e-05 |  |  | 1.94e-05 ± 7.6e-06 | 3.91e-05 ± 8.6e-06 |  | 
C58A U69C | 0.000112 ± 1.3e-05 | 3.58e-05 ± 1.2e-05 | 4.91e-05 ± 1e-05 | 9.46e-05 ± 2.2e-05 | 0.000107 ± 1.5e-05 | 640 ± 220 | 
